The assay concerns the target GLP-1 receptor. The assay can be described thus: cell-based or functional assay.

Substance “native human GLP-1 (7-37) (from UniProt P01275 21-180) (peptide)” registered an EC50, cAMP production (cAMP-inducible luciferase reporter) in HEK293 cells expressing GLP1R of 3.1 pM.

Values taken from patent publication US20210309722A1.
